The target in this assay is HLA-A*0201 molecule (human). As to the kind of experiment: T2 cells loaded with 100 µM peptide, Brefeldin A, flow cytometry with BB7.2 at 0-8 h. The following applies: remark: other sources report otherwise. A general note: Flow cytometry measures light scatter and fluorescence of single cells or particles in a stream.

Regarding YEFLWGPRA [p262 (…)], the DC50 (time for loss of 50% of the complexes) is below 2 h.

Source of the values: patent publication US20060263381A1.
